Experimental data reported in patent US7070977.

System: PFEK-protease D-G-6×HIS zymogen
Sequence (chain, as listed by the source): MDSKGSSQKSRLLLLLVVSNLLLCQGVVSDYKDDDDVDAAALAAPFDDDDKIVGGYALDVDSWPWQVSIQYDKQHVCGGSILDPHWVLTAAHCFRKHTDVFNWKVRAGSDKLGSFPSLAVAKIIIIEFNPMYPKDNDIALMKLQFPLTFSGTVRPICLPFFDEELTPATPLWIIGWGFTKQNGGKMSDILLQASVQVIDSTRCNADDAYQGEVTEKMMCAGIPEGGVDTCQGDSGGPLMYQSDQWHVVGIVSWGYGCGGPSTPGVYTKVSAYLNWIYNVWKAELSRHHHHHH

**Q.** enterokinase was tested. Which “cleavage and activation of the zymogen (SDS-PAGE mobility shift and Western blot)” value did it give?
**A.** This demonstrates the quantitative cleavage of the expressed and purified zymogen to generate the processed and activated protease
